T1: PilQ complex (native secretin) (Neisseria meningitidis M1080, UniProt Q9JVW4 25-761)
T1 sequence: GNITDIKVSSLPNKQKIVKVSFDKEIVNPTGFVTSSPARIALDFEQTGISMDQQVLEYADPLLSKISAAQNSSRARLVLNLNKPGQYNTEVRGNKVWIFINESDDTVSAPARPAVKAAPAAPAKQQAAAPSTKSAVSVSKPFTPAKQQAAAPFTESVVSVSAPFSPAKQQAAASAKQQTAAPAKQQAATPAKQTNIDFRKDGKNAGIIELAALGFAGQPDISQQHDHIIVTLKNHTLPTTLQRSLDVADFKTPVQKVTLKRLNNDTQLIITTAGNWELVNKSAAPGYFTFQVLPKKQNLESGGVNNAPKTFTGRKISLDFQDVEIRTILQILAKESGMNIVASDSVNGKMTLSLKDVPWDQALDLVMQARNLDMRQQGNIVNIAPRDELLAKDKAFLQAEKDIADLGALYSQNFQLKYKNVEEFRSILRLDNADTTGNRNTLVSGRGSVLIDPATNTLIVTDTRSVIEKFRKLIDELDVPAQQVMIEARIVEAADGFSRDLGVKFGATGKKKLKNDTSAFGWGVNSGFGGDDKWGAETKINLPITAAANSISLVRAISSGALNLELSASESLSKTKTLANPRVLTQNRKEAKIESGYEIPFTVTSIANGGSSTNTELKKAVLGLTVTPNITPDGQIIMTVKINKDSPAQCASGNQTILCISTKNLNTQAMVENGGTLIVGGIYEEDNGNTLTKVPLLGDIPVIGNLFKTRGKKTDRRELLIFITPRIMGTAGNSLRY

T2: PilQ25-354 (Neisseria meningitidis M1080, UniProt Q9JVW4 25-354)
T2 sequence: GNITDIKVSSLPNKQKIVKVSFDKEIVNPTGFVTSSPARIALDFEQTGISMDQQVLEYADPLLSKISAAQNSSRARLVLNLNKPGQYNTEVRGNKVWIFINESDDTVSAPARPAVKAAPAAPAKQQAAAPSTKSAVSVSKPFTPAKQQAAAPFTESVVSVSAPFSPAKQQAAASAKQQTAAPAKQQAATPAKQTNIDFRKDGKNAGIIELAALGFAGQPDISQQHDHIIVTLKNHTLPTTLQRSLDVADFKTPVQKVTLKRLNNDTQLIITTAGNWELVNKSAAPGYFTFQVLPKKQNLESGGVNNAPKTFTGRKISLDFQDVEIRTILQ

T3: PilQ352-761 (Neisseria meningitidis M1080, UniProt Q9JVW4 352-761)
T3 sequence: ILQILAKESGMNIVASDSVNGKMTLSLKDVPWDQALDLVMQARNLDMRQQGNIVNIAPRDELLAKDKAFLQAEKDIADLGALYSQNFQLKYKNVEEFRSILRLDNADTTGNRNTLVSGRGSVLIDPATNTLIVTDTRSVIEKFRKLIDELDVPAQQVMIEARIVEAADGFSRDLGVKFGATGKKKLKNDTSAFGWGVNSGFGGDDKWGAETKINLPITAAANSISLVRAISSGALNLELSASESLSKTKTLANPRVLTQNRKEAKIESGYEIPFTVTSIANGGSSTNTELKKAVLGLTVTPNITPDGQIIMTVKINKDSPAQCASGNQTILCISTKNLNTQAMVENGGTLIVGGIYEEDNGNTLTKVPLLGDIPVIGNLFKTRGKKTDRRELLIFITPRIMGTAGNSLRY

T4: PilQ25-132 (Neisseria meningitidis M1080, UniProt Q9JVW4 25-132)
T4 sequence: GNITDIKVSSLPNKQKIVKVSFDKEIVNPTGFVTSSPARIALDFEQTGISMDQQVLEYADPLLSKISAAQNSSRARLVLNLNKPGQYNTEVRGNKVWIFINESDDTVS

T5: PilQ218-478 (Neisseria meningitidis M1080, UniProt Q9JVW4 218-478)
T5 sequence: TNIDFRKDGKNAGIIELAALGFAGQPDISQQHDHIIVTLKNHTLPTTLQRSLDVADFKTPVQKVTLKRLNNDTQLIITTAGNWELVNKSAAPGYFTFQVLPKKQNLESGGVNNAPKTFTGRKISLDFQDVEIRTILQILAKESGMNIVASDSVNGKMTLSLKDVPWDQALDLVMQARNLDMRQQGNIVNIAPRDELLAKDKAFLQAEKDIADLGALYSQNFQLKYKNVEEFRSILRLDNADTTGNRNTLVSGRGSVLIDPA

B1: T1 (ssDNA)
DNA: CAACAACAACAACAGCCGTCTGAACCAAATTCAGACGGCAACAACAACAACA
B2: T7+T8 hybrid (dsDNA)
DNA 1: CCGCCGCCTGCCGTCTGAAAGATATTCAGACGGCATCGGC
DNA 2: GCCGATGCCGTCTGAATATCTTTCAGACGGCAGGCGGCGG
B3: T3+T4 hybrid (dsDNA)
DNA 1: CAACAACAACAACAGGCCTGTCATCCAAAATGACAGGCCAACAACAACAACA
DNA 2: TGTTGTTGTTGTTGGCCTGTCATTTTGGATGACAGGCCTGTTGTTGTTGTTG
B4: T1+T2 hybrid (dsDNA)
DNA 1: B1 DNA
DNA 2: TGTTGTTGTTGTTGCCGTCTGAATTTGGTTCAGACGGCTGTTGTTGTTGTTG
B5: T3 (ssDNA)
DNA: B3 DNA 1
B6: T4 (ssDNA)
DNA: B3 DNA 2
B7: T2 (ssDNA)
DNA: B4 DNA 2

These binders were tested against T1, PilQ complex (native secretin) (assay: Southwestern; whole-cell lysate, PilQ multimer band; EMSA: 50 mM MOPS pH 7.5, 1 mM EDTA, 1 mM DTT, 5 mM MgCl2, 5% glycerol, 200 ng protein in 10 ul, 20 min room temperature; 6% PAGE). Details: chain copies: 12, label: 5' 32P, ss, 1 strand.

Row | Binder | binding result
1 | B1 | binds

What follows are binders tested against T2, PilQ25-354 (assay: EMSA; 5 mM Mg2+; EMSA: 50 mM MOPS pH 7.5, 1 mM EDTA, 1 mM DTT, 5 mM MgCl2, 5% glycerol, 200 ng protein in 10 ul, 20 min room temperature; 6% PAGE). Details: protein: recombinant; tags: His (N-terminal with pQE30); label: 5' 32P; blunt.

Row | Binder | binding result
2 | B2 | binds
3 | B3 | binds
4 | B4 | binds

Same assay, conditions: protein: recombinant; tags: His (N-terminal with pQE30); label: 5' 32P; ss; 1 strand

Row | Binder | binding result
5 | GCCGATGCCGTCTGAATATCTTTCAGACGGCAGGCGGCGG (ssDNA) [T8] | binds
6 | CCGCCGCCTGCCGTCTGAAAGATATTCAGACGGCATCGGC (ssDNA) [T7] | binds
7 | B5 | binds
8 | B1 | binds
9 | B6 | binds
10 | B7 | binds

What follows are binders tested against T3, PilQ352-761 in the same assay as above. Details: protein: recombinant; tags: His (C-terminal with pET28b); label: 5' 32P; blunt.

Row | Binder | binding result
11 | B2 | no binding
12 | B3 | no binding
13 | B4 | no binding

Same assay, conditions: protein: recombinant; tags: His (C-terminal with pET28b); label: 5' 32P; ss; 1 strand

Row | Binder | binding result
14 | GCCGATGCCGTCTGAATATCTTTCAGACGGCAGGCGGCGG (ssDNA) [T8] | no binding
15 | CCGCCGCCTGCCGTCTGAAAGATATTCAGACGGCATCGGC (ssDNA) [T7] | no binding
16 | B5 | no binding
17 | B1 | no binding
18 | B6 | no binding
19 | B7 | no binding

The binders below were run against T4, PilQ25-132 in the same assay as above. Details: protein: recombinant; tags: His; label: 5' 32P; blunt.

Row | Binder | binding result
20 | B3 | binds

Same assay, conditions: protein: recombinant; tags: His; label: 5' 32P; ss; 1 strand

Row | Binder | binding result
21 | CCGCCGCCTGCCGTCTGAAAGATATTCAGACGGCATCGGC (ssDNA) [T7] | no binding
22 | B5 | no binding
23 | B1 | no binding
24 | B6 | no binding
25 | B7 | no binding

What follows are binders tested against T5, PilQ218-478 in the same assay as above. Details: protein: recombinant; tags: His (N-terminal with pQE30); label: 5' 32P; blunt.

Row | Binder | binding result
26 | B4 | no binding

Same assay, conditions: protein: recombinant; tags: His (N-terminal with pQE30); label: 5' 32P; ss; 1 strand

Row | Binder | binding result
27 | GCCGATGCCGTCTGAATATCTTTCAGACGGCAGGCGGCGG (ssDNA) [T8] | no binding
28 | B5 | no binding
29 | B1 | no binding
30 | B6 | no binding

Source: paper PMC2884949, “The outer membrane secretin PilQ from Neisseria meningitidis binds DNA”
